Data from US10934559B2, “Hypersensitive ABA receptors” (The Regents of the University of California, priority 2014, dated 2021).
Numbering of substitutions follows the chain as printed. Names may count otherwise. Like-named read-outs stand apart in the source and are kept apart here.

B1: A160V: PYR1 mutant A160V, SEQ ID NO:141; for ITC the cleaved recombinant protein with NH2-terminal QS appendage (protein)
chain: MPSELTPEERSELKNSIAEFHTYQLDPGSCSSLHAQRIHAPPELVWSIVRRFDKPQTYKHFIKSCSVEQNFEMRVGCTRDVIVISGLPANTSTERLDILDDERRVTGFSIIGGEHRLTNYKSVTTVHRFEKENRIWTVVLESYVVDMPEGNSEDDTRMFVDTVVKLNLQKLATVAEAMARNSGDGSGSQVT
modifications: N-terminal QS appendage for ITC; synthetic Arabidopsis PYR1 mutant A160V
B2: I110C: PYR1 mutant I110C, SEQ ID NO:128 (protein)
chain: B1 chain with I110C, V160A
modifications: synthetic Arabidopsis PYR1 mutant I110C
B3: V81Y: PYR1 mutant V81Y, SEQ ID NO:127 (protein)
chain: B1 chain with V81Y, V160A
modifications: synthetic Arabidopsis PYR1 mutant V81Y

Experiments:
HAB1 = assay: PYR1 mutant-HAB1 yeast two-hybrid assay under different ABA concentrations (X-gal staining); type: cell-based; settings: lowest (+)-ABA concentration giving detectable X-gal staining; S. cerevisiae Y190 with pACT-HAB1; 30° C., 48 hours
From the text: The affinity of a receptor for a target ligand is typically determined by non-covalent interactions between ligand-binding residues and the ligand. Mutations in such residues can have negative, positive or neutral effects on the strength of the receptor—ligand interaction. The affinity of a receptor-ligand interaction is intrinsically correlated with the concentration of ligand required to elicit biological effects, with high affinity ligands requiring lower concentrations relative to low affinity ligands. A mutant receptor with increased affinity for a ligand can in some cases elicit greater biological effect relative to a wild type receptor, when both are activated under identical conditions by the same concentration of activating ligand. Thus, mutations that make a receptor hypersensitive to a ligand can be useful for engineering organisms that elicit stronger responses to the ligand relative to wild type. […] Based on these considerations, we set out to systematically establish specific ABA receptor mutations that increase ABA responsiveness. This was done by testing a collection of PYR1 variants with all possible single amino acid substitution mutations in ligand binding residues. Thus we conducted site-saturated mutagenesis of ABA-contacting residues, which we define as those that are within 5A or ABA or ABA-contacting water residues in available X-ray coordinates. This collection of mutants was constructed previously, as described in PCT Application No. PCT/US2012/043121 and Mosquna et al., Proc Natl Acad Sci USA 108: 20838-20843 (2011). This collection of mutants was made by mutagenizing a previously described pBD GAL-PYR1 template (Park, S.-Y., et al. Science 324, 1068-1071 ([…])). In response to ABA, this particular plasmid encodes a fusion protein that binds to a co-expressed GAL4 activation domain-HAB1 fusion protein, encoded by the plasmid pACT-HAB1. This binding reconstitutes a functional GAL4 transcriptional activator and subsequent transcription of a β-galactosidase reporter gene, which in turn enables colorimetric based detection of agonist promoted receptor-PP2C interaction when lysed cells are exposed to the substrate X-gal. The mutant clones were individually transformed into S. cerevisiae strain Y190 containing pACT-HAB1. Yeast transformants were selected for the presence of plasmids on synthetic dextrose (SD) agar plates lacking Leu and Trp (SD-LT) and examined for PP2C interactions by using X-gal staining to monitor β-gal reporter gene expression levels. Individual clones were arrayed into 96 well plates and then spotted onto SD-LT lawn (i.e. one-well) plates containing 0, 0.5 or 5.0 μM (+)-ABA. Each assay plate contained 95 mutant clones and one wild type PYR1 positive control clone. The spotted cells were cultured at 30° C. for 48 hours after which they were lysed by chloroform and stained with an X-gal solution, as previously described (Park, S.-Y., et al. (2009) Science 324, 1068-1071). […] After this initial screening exercise, all positives clones were retested on plates containing […] and stained for galactosidase activity as described above. Mutant clones showing detectable staining on 0.5 μM (+)-ABA or lower were scored as hypersensitive mutants. FIG. 1 depicts results of PYR1 mutant-HAB1 interactions as assayed in a yeast two-hybrid assay under different ABA concentrations, with darker spots indicating increased interaction.

[1] = previously measured, Dupeux et al. 2010; read-out: affinity of wild type PYR1 (Kd) measured using ITC; cited from earlier work
[2] = isothermal titration calorimetry (ITC) of receptor-ABA binding; settings: 600 μM (+)-ABA injected into 60 μM receptor; PBS, 1 mM 2-mercaptoethanol, 0.012% DMSO; single binding site model
From the text: The ligand sensitivity of PYR1 and HAB1 yeast two hybrid strains generally correlates with receptor affinity. To examine if this was the case for the hypersensitive mutations identified by our functional screens, we conducted isothermal titration calorimetry (ITC) to measure the heat produced by a mutant receptor-ABA binding reaction and infer the ligand binding dissociation constant (Kd). […] The PYR1-A160V mutant receptor was expressed in E. coli BL21(DE3) as a fusion to the small ubiquitin like protein SUMO, using the vector pSUMO (LifeSensors, USA), which improves the solubility of proteins in E. coli and contains an NH2-terminal hexa-histidine tag that facilitates purification using immobilized metal affinity chromatography (IMAC). PYR1 A160V was cloned into pSUMO by using PCR product generated from a pBD-PYR1(A160V) yeast two hybrid construct as template, and sequence validated. A short flexible linker and tobacco etch virus (TEV) protease cleavage site (sequence NH2-[…]-COOH; SEQ ID NO:411) was incorporated in between the SUMO tag and the receptor to enable cleavage of the recombinant protein by TEV protease, which yields PYR1(A160V) plus an NH2-terminal QS appendage. […]

Row | Molecule | Minimal conc. For ABA response (HAB1) [µM] | Kd [1] [µM] | Kd [2] [µM]
1 | WT: Arabidopsis wildtype PYR1 ABA receptor, SEQ ID NO:1 [reference compound] | 1 | 97 ± 36 | 
2 | B1 | 0.25 |  | 1.5
3 | B2 | 0.25 |  | 
4 | B3 | 0.25 |  | 
